According to publication PMC4674748, “Identification of the Replication Origins from Cyanothece ATCC 51142 and Their Interactions with the DnaA Protein: From In Silico to In Vitro Studies”:

Target: T1, His6-DnaA (IV) (Cyanothece ATCC 51142, UniProt B1X0X6 331-455)
T1 sequence: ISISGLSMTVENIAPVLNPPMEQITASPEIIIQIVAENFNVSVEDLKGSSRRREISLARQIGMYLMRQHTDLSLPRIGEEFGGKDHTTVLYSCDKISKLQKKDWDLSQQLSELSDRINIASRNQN
Assay: EMSA; 5-100 nM protein; 3 mM ATP, poly(dI-dC); better affinity than Lbox23; EMSA: 20 mM Hepes/KOH pH 8.0, 5 mM Mg acetate, 1 mM Na2EDTA, 4 mM DTT, 0.2% Triton X-100, 3 mM ATP, 5 mg/mL BSA, poly(dI-dC), 37 C 30 min; footprint: 25 C 30 min, 400 ng probe in 40 uL
Conditions: protein: recombinant; tags: N-terminal His6 (pET-28a, BamHI/HindIII); blunt

B1: Cbox23 (2Box2B, 35 nt) (dsDNA)
DNA 1: CCTTTAAATTTTTCCACAGTTTTTCCACAGCATTA
DNA 2: TAATGCTGTGGAAAAACTGTGGAAAAATTTAAAGG
Question: Does B1 bind?
Answer: binds
